The results in this text go back to article PMC3963918, “CCHCR1 Interacts Specifically with the E2 Protein of Human Papillomavirus Type 16 on a Surface Overlapping BRD4 Binding” (PLoS ONE, 2014).

B1: unnamed (parent)
chain 1: METLCQRLNVCQDKILTHYENDSTDLRDHIDYWKHMRLECAIYYKAREMGFKHINHQVVPTLAVSKNKALQAIELQLTLETIYNSQYSNEKWTLQDVSLEVYLTAPTGCIKKHGYTVEVQFDGDICNTMHYTNWTHIYICEEASVTVVEGQVDYYGLYYVHEGIRTYFVQFKDDAEKYSKNKVWEVHAGGQVILCPTSVFSSNEVSSPEIIRQHLANHPAATHTKAVALGTEETQTTIQRPRSEPDTGNPCHTTKLLHRDSVDSAPILTAFNSSHKGRINCNSNTTPIVHLKGDANTLKCLRYRFKKHCTLYTAVSSTWHWTGHNVKHKSAIVTLTYDSEWQRDQFLSQVKIPKTITVSTGFMSI
chain 2: KAGRAEAEGLRAALAGAEVVRKNLEEGSQRELEEVQRLHQEQLSSLTQAHEEALSSLTSKAEGLEKSLSSLETRRAGEAKELAEAQREAELLRKQLSKTQEDLEAQVTLVENLRKYVGEQVPSEVHSQTWELERQKLLETMQHLQEDRDSLHATAELLQVRVQSLTHILALQEEELTRKVQPSDSLEPEFTRKCQSLLNRWREKVFALMVQLKAQELEHSDSVKQLKGQVASLQEKVTSQSQEQAILQRSLQDKAAEVEVERMGAKGLQLELSRAQEARRRWQQQTASAEEQLRLVVNAVSSSQIWLETTMAKVEGAAAQLPSLNNRLSYAVRKVHTIRGLIARKLALAQLRQESCPLPPPVTDVSLELQQLREERNRLDAELQLSARLIQQEVGRAREQGEAERQQLSKVAQQLEQELQQTQESLASLGLQLEVARQGQQESTEEAASLRQELTQQQELYGQALQEKVAEVETRLREQLSDTERRLNEARREHAKAVVSLRQIQRRAAQEKERSQELRRLQEEARKEEGQRLARRLQELERDKNLMLATLQQEGLLSRYKQQRLLTVLPSLLDKKKSVVSSPRPPECSASAPVAAAVPTRESIKGSLSVLLDDLQDLSEAISKEEAVCQGDNLDRCSSSNPQMSS
B2: unnamed (parent)
chain 1: B1 chain 1
chain 2: MDQNNSLPPYAQGLASPQGAMTPGIPIFSPMMPYGTGLTPQPIQNTNSLSILEEQQRQQQQQQQQQQQQQQQQQQQQQQQQQQQQQQQQQQQQQQAVAAAAVQQSTSQQATQGTSGQAPQLFHSQTLTTAPLPGTTPLYPSPMTPMTPITPATPASESSGIVPQLQNIVSTVNLGCKLDLKTIALRARNAEYNPKRFAAVIMRIREPRTTALIFSSGKMVCTGAKSEEQSRLAARKYARVVQKLGFPAKFLDFKIQNMVGSCDVKFPIRLEGLVLTHQQFSSYEPELFPGLIYRMIKPRIVLLIFVSGKVVLTGAKVRAEIYEAFENIYPILKGFRKTT

One assay covers variants of B1. In words: GPCA. The following applies: with partner chain of the complex shown;; read off a plot.
With chain 1 I73A, the ratio to parent is 0.11. In the case of chain 1 R27D, the ratio to parent was 0.66. Turning to chain 1 N181T, the ratio to parent came to 0.93. For chain 1 R37A, the ratio to parent is 0.06. Turning to chain 1 E39A, the ratio to parent was found to be 0.92.

In the next assay the parent is B2. In words: GPCA. The following applies: with partner chain of the complex shown;; read off a plot.
Turning to chain 1 N181T, the ratio to parent was 0.95.

Consider chain 1 R37A, for which the ratio to parent is 1.1. Consider chain 1 R27D, for which the ratio to parent was determined as 0.91. As for chain 1 I73A, the ratio to parent was 0.97. The same measure, in the same setting: to chain 1 E39A belongs 1.2.
